# Data published in the supplement of paper PMC10724198.
# ± gives the standard deviation of the averaged measurements.
# Test system: Saccharomyces cerevisiae
# Test: protein stability index of tFT-peptide fusion (C-terminal peptide) (PSI (0-1 scale)); higher = more stable (slower turnover)
# Conditions: genetic background: wild type; temperature: 30 C
# 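Also: PSI is a weighted mean of sequencing reads over stability bins, variants kept only with over 10 reads, mCherry proximal and sfGFP distal, peptide attached via GGGS linker.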
row,Sequence,protein stability index
1,LIHGRFWVIRVD,0.616 ± 0.0092
2,LIKSEECKNTDI,0.704 ± 0.033
3,LILLLTPPVIHH,0.743 ± 0.051
4,LIRLLPPPPAVF,0.487 ± 0.068
5,LISHHSEFPVIL,0.744 ± 0.031
6,LISNIFSFEWLW,0.622 ± 0.032
7,LKDITVWRPKRG,0.658 ± 0.12
8,LKHHDSNESASR,0.651 ± 0.1
9,LKKMIGPLRAGE,0.686 ± 0.076
10,LKLHDSNESASR,0.651 ± 0.03
11,LKLTFFCRQNIF,0.574 ± 0.0098
12,LKNIRYGIIKKE,0.68 ± 0.0085
13,LKRKKKHQMKRR,0.699 ± 0.028
14,LKSGRYSYFGSL,0.734 ± 0.086
15,LLAAVSPSHRAL,0.724 ± 0.021
16,LLAPSPPPPLPP,0.61 ± 0.13
17,LLAYFCRRGVRH,0.7232 ± 0.0071
18,LLCSLRPLAVPP,0.602 ± 0.039
19,LLDLCSNLLRSF,0.757 ± 0.11
20,LLEKGHTRGLCF,0.663 ± 0.017
21,LLFCMGSCGPVR,0.624 ± 0.027
22,LLFVVSLPSFPC,0.636 ± 0.13
23,LLGFRLACTSGA,0.648 ± 0.0079

row,Sequence,protein stability index
1,LLGRWVAGSRGG,0.746 ± 0.017
2,LLHAGVCSVSFL,0.718 ± 0.038
3,LLLPPAPPPPLS,0.621 ± 0.095
4,LLLVGGVSSWTV,0.67 ± 0.014
5,LLLVRNCQDSRQ,0.69 ± 0.057
6,LLPFLPPPPCPP,0.72 ± 0.022
7,LLPFTLHIPLRP,0.6523 ± 0.0022
8,LLPGLVGMLSCM,0.602 ± 0.039
9,LLPGPYPLLSDN,0.732 ± 0.025
10,LLPLAPVCVIIL,0.54 ± 0.041
11,LLPLPCPPFPHS,0.674 ± 0.024
12,LLPPPHHANHTA,0.6915 ± 0.0027
13,LLPRLRHPSRGK,0.73 ± 0.15
14,LLPSPISRNRAL,0.696 ± 0.0081
15,LLPSPLHGCTMS,0.676 ± 0.01
16,LLPSPPPPTSLP,0.728 ± 0.033
17,LLPVLGFPLPFD,0.75 ± 0.065
18,LLRVLPPPPLPL,0.712 ± 0.11
19,LLRVTVCELAYK,0.55 ± 0.018
20,LLSFLPPVFLLL,0.514 ± 0.014
21,LLSGPTLSCVPT,0.617 ± 0.043
22,LLSLHPRYPCTP,0.76 ± 0.047
23,LLSLLPFGCLLL,0.536 ± 0.031

row,Sequence,protein stability index
1,LLSRLLLAPSSL,0.65 ± 0.019
2,LLSSATPSKFPS,0.836 ± 0.021
3,LLSTPPIVSPPA,0.6987 ± 0.0031
4,LLSVPCPLVCRL,0.699 ± 0.037
5,LLSYLRNCCAEH,0.687 ± 0.035
6,LLTFSSCALPYR,0.676 ± 0.092
7,LLTGKTVPKDST,0.705 ± 0.016
8,LLWGSSPDGGQG,0.694 ± 0.019
9,LLYLFMSSRFLW,0.6369 ± 0.003
10,LMCSSGGGCSCG,0.706 ± 0.023
11,LNGRYGGFGHRC,0.7009 ± 0.007
12,LNLLCGFRQVGG,0.701 ± 0.013
13,LNNLTVVDVAGL,0.69 ± 0.017
14,LNTETNVVLLEG,0.671 ± 0.035
15,LNTVRKSKDKAI,0.706 ± 0.19
16,LNVVSRLLACGL,0.642 ± 0.022
17,LPAARQSVLPPA,0.732 ± 0.0085
18,LPASPPLSGLIF,0.823 ± 0.14
19,LPCFPSLNRNPL,0.7397 ± 0.0015
20,LPCPSPPPSPLS,0.675 ± 0.06
21,LPCVSTCCSCLL,0.706 ± 0.011
22,LPDSHHQTMGVF,0.711 ± 0.055
23,LPGCGSYLSGNV,0.651 ± 0.056

row,Sequence,protein stability index
1,LPKTSPRSRRER,0.6868 ± 0.0053
2,LPLIPTSSRRHS,0.682 ± 0.024
3,LPLLSSLLALLY,0.647 ± 0.042
4,LPLPHAPPPPPT,0.7233 ± 0.0026
5,LPLPPALPSPSL,0.658 ± 0.027
6,LPLPPPCSRVLF,0.644 ± 0.074
7,LPLPPPPLLPAP,0.732 ± 0.057
8,LPLPPPPPCCSF,0.701 ± 0.015
9,LPMGGMFVARSI,0.653 ± 0.059
10,LPPDSLRPPGPP,0.761 ± 0.017
11,LPPFPLPPPLLS,0.68 ± 0.1
12,LPPGDPPPRGPP,0.597 ± 0.045
13,LPPHAPIPRWKP,0.776 ± 0.17
14,LPPHPPSPPFLP,0.588 ± 0.023
15,LPPPFPWSPSGP,0.698 ± 0.066
16,LPPPLLPTPMAP,0.661 ± 0.09
17,LPPPPRPRSLLS,0.693 ± 0.047
18,LPPPPSPLPPRP,0.627 ± 0.048
19,LPPPRPLPIPSP,0.711 ± 0.047
20,LPPRLPLSLDVL,0.675 ± 0.086
21,LPPTPTLPLVPP,0.7153 ± 0.0053
22,LPRASPKARTLR,0.714 ± 0.075
23,LPRASQFLLPVP,0.651 ± 0.065

row,Sequence,protein stability index
1,LPRFTPPLPPPL,0.734 ± 0.0096
2,LPRNQPVPFPCH,0.677 ± 0.0094
3,LPRPPPFSPPPP,0.651 ± 0.11
4,LPRREQILRKGS,0.71 ± 0.023
5,LPRSRLAPPPCS,0.73 ± 0.015
6,LPSARLPPPPPR,0.683 ± 0.021
7,LPSEAPSLLAPP,0.663 ± 0.084
8,LPSHAPRRPTFP,0.7403 ± 0.0056
9,LPSLLPESGLCF,0.604 ± 0.0086
10,LPSPPPSSPLPP,0.56 ± 0.048
11,LPSPYPPPRPLP,0.711 ± 0.034
12,LPSQRPWLAQSI,0.717 ± 0.01
13,LPSSAVDLYTRP,0.6468 ± 0.0059
14,LPSSPFPPLPVT,0.6889 ± 0.0042
15,LPSTQSPPPPLP,0.705 ± 0.077
16,LPTASLLPPPPP,0.626 ± 0.078
17,LPTKPVPIPRHY,0.693 ± 0.052
18,LPTPSQYFFPPP,0.736 ± 0.018
19,LPTPSSSYLYPA,0.611 ± 0.017
20,LPTPTPPPALRS,0.689 ± 0.053
21,LPTYPPTLPVPS,0.638 ± 0.04
22,LPVPFFPPCPFR,0.732 ± 0.012
23,LPYHSSPPSSSP,0.702 ± 0.046

row,Sequence,protein stability index
1,LQAKRTAGPGEH,0.68423 ± 0.00012
2,LQIFRSRCFGGL,0.722 ± 0.13
3,LQKRKQMRKIKE,0.646 ± 0.019
4,LRALLSHPRRCA,0.625 ± 0.034
5,LRAPPPPAQPFV,0.694 ± 0.012
6,LRFELCLCIEPA,0.53 ± 0.059
7,LRFIIPSDLSFV,0.696 ± 0.03
8,LRFVTAGEFEMK,0.635 ± 0.061
9,LRGIGVSWWKGL,0.583 ± 0.023
10,LRGLLWFSRVGS,0.618 ± 0.011
11,LRGNDRLLSKRI,0.694 ± 0.022
12,LRGSDYIVIGGS,0.656 ± 0.025
13,LRGVDYEQMSDP,0.667 ± 0.11
14,LRHLLAPPPRPP,0.649 ± 0.016
15,LRHLPHPTCSLL,0.7 ± 0.06
16,LRKTNQKIRSFK,0.614 ± 0.037
17,LRLLPRIVSPSV,0.6 ± 0.022
18,LRLLSFFITSFL,0.64 ± 0.13
19,LRPFSPSPPRPF,0.705 ± 0.013
20,LRPLSPPTLLPA,0.664 ± 0.022
21,LRPPPAAHSLGP,0.645 ± 0.012
22,LRQWRRERAIII,0.601 ± 0.042
23,LRRLSSIGWSRI,0.754 ± 0.14

row,Sequence,protein stability index
1,LRSLSLSYVALR,0.6592 ± 0.0017
2,LRSVNVLAALFS,0.686 ± 0.043
3,LRVNFPLHDPHP,0.65 ± 0.049
4,LRVSPVALPSSW,0.81 ± 0.13
5,LSADVNRRLGLS,0.674 ± 0.035
6,LSAFLLLMPRLP,0.659 ± 0.01
7,LSALPLTRPLAR,0.709 ± 0.043
8,LSALSLFLFFLR,0.58 ± 0.046
9,LSAPLPPLSAPP,0.667 ± 0.0099
10,LSAQNNTGIVKT,0.623 ± 0.0084
11,LSATGSCSPRRG,0.693 ± 0.014
12,LSCLIPLPAPPL,0.662 ± 0.052
13,LSCRLDGIVIWF,0.64 ± 0.051
14,LSFLAPGPPPAR,0.735 ± 0.039
15,LSGRQKLNMSIR,0.682 ± 0.029
16,LSHAQIDPEFTE,0.697 ± 0.042
17,LSHIPDRQRLKP,0.715 ± 0.062
18,LSHPPPPPSSAT,0.716 ± 0.027
19,LSHSSPLFSPLV,0.72 ± 0.0077
20,LSIGDLTIEKKL,0.686 ± 0.022
21,LSISPSPPPPLW,0.706 ± 0.052
22,LSKSPRPARCSA,0.6091 ± 0.0024
